T1: IL-20RA/IL-20RB heterodimeric receptor (human), on cells (human, UniProt Q9UHF4 30-553; Q6UXL0 30-311)
T1 sequence 1: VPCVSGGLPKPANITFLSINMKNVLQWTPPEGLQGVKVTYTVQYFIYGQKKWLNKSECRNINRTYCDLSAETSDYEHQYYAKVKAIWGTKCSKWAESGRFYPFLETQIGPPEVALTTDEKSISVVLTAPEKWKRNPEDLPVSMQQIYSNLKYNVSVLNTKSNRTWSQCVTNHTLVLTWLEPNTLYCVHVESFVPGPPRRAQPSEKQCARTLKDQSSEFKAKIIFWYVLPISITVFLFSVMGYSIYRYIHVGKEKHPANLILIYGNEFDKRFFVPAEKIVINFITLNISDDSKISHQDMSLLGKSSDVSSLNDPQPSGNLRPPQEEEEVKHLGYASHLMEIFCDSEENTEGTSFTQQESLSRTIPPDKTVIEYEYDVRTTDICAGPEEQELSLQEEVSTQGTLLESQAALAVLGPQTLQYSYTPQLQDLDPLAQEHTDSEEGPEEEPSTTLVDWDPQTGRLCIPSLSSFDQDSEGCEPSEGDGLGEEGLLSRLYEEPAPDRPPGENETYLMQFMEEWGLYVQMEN
T1 sequence 2: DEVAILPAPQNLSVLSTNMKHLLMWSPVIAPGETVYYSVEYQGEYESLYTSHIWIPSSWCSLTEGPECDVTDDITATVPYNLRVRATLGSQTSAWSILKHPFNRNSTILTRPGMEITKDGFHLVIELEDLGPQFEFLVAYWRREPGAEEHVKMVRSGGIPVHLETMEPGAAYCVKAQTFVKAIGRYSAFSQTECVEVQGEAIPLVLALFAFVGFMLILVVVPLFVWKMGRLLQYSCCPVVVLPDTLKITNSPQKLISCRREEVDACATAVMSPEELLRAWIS

T2: IL-20RA (human), on cells (human, UniProt Q9UHF4 30-553)
T2 construct: This id covers the subunit expressed alone on BHK or BaF3/KZ134 transfectants; It is also used for endogenous IL-20RA on human monocytic cells and in human lung tissue; also called ZcytoR7; IL-20RA only
T2 sequence: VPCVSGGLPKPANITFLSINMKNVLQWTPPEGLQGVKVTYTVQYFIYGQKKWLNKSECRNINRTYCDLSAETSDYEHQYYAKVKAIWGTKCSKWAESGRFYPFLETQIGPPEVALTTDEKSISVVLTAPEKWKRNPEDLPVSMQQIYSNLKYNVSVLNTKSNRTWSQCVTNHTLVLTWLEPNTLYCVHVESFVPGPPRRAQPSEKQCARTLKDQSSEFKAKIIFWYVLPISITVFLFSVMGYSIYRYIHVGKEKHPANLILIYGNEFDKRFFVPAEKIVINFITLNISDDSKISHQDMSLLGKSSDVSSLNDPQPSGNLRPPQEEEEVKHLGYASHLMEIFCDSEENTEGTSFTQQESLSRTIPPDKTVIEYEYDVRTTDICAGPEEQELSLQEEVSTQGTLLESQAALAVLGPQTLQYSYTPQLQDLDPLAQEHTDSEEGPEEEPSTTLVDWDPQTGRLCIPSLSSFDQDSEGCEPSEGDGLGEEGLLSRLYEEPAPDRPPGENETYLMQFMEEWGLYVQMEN

T3: IL-20RB (human), on cells (human, UniProt Q6UXL0 30-311)
T3 construct: This id covers the subunit expressed alone on BHK or BaF3/KZ134 transfectants; It is also used for endogenous IL-20RB on THP-1 cells; also called DIRS1; pDIRS1
T3 sequence: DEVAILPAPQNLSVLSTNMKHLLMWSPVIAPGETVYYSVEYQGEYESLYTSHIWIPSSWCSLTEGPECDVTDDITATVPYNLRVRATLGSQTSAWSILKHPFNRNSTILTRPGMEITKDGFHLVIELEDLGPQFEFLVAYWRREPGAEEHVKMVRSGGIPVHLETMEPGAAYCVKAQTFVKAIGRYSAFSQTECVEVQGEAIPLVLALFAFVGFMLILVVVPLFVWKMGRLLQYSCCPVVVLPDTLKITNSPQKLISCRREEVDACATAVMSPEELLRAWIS

B1: human IL-20-Bv (purified mature recombinant human IL-20 produced in Baculovirus) (ligand)
chain: LKTLNLGSCVIATNLQEIRNGFSDIRGSVQAKDGNIDIRILRRTESLQDTKPANRCCLLRHLLRLYLDRVFKNYQTPDHYTLRKISSLANSFLTIKKDLRLCHAHMTCHCGEEAMKKYSQILSHFEKLEPQAAVVKALGELDILLQWMEETE
B2: IL-20 (human IL-20, mature polypeptide; preparation or host not specified) (ligand)
chain: LKTLNLGSCVIATNLQEIRNGFSDIRGSVQAKDGNIDIRILRRTESLQDTKPANRCCLLRHLLRLYLDRVFKNYQTPDHYTLRKISSLANSFLTIKKDLRLCHAHMTCHCGEEAMKKYSQILSHFEKLEPQAAVVKALGELDILLQWMEETE
notes: also called Zcyto10; IL-20 protein

Experiments:
[1] = target: T1, IL-20RA/IL-20RB heterodimeric receptor …; assay: cell-based or functional assay
[2] = target: T2, IL-20RA (human), on cells; assay: radiolabeled ligand binding on stably transfected BHK cells
Method: (§1) The specificity and affinity of IL-20 for its receptor was determined using BHK cells stably transfected with IL-20RA, IL-20RB or both receptor subunits. […] Binding of ¹²⁵I-labeled IL-20 was eliminated in the presence of 100-fold excess of unlabeled IL-20 but not with 100-fold excess of the unrelated cytokine, IL-21.

[3] = target: T3, IL-20RB (human), on cells; assay: as above
Method: as §1

[4] = target: T1, IL-20RA/IL-20RB heterodimeric receptor …; assay: 125I-IL-20 binding on BHK cells expressing IL-20RA and IL-20RB
Method: as §1

Binder	Alamar Blue proliferation of BaF3/KZ134/IL-20RA/IL-20RB cells at 1 pM IL-20 [1] [fold over background]	Alamar Blue proliferation of BaF3/KZ134/IL-20RA/IL-20RB cells at 1 nM IL-20 [1] [fold over background]	binding result [2]	binding result [3]	Kd [4] [nM]
B1	2	~30			
B2			no binding	no binding	~1.5

Source: patent US20050136004A1 (ZymoGenetics, published 2005)
